# Assay results reported in patent US20060074018A1, “Methods of diagnosing & treating diabetes and insulin resistance” (Metabolex Inc, priority 2002, published 2006).
# Experiments:
# [1] = tested on: 3T3-L1 adipocytes; experiment: Glut 4 translocation analysis; type: cell-based, murine; settings: for Fold Change (Mean hTIEG/Mean LacZ), cells positive for cell surface Glut 4 / Fold Change (Mean hCTGF/Mean LacZ), cells positive for cell surface Glut 4: n = 3; for Glut 4 translocation with insulin (in words) / Basal Glut 4 translocation (in words): over-expression in 3T3-L1 adipocytes; for Glut 4 translocation with insulin (in words): all insulin concentrations tested; for Basal Glut 4 translocation (in words): no insulin
# Description: One analysis called “Glut 4 translocation” involves over-expressing the gene in 3T3-L1 adipocytes and then monitoring the ability of insulin to cause the movement (translocation) of the major insulin-regulated glucose transporter, Glut 4, to the cell surface. The cDNA encoding the human gene was sub-cloned into the mammalian expression vector pcDNA3.1 which provides for a V5 epitope tag. This plasmid encoding the human gene was then introduced into differentiated murine 3T3-L1 adipocytes along with a cloned Glut 4 expression construct using an electroporation procedure essentially as described in Kanzaki et al. J. Biol. Chem 275 7167-7175 (2000). A plasmid expressing LacZ was used as a negative control. After stimulation with increasing concentrations of insulin, cells co-expressing both the human gene and cloned Glut 4 were scored for the presence of Glut 4 at the cell surface using fluorescence microscopy.
# [2] = tested on: 3T3-L1 adipocytes; experiment: Glucose transport analysis in 3T3-L1 adipocytes; type: cell-based, murine
# Protocol: (§1) In some instances another analysis called “glucose transport” was used. This involves over-expressing the gene in either differentiated 3T3-L1 adipocytes or differentiated L6 myotubes and then monitoring the ability of insulin to stimulate glucose transport into these two cell types. A recombinant adenovirus encoding the human gene tagged with a FLAG epitope tag was prepared essentially as described in Zhou et al. Proc. Nat. Acad. Sci. USA. 95: 2509-2514. 3T3-L1 adipocytes or L6 myotubes were infected with recombinant adenovims expressing the human gene. A virus expressing an irrelevant protein was used as the control. 24 h post-infection the cells are stimulated with increasing concentrations of insulin and glucose transport into the cells determined by the counting the accumulation of a radiolabelled glucose analog (2-deoxyglucose) essentially as describe in Kotani et al. Mol Cell. Biol. 18 6971-6982 (1998), Fujishiro et al. J. Biol. Chem. 276 19800-19806 (2001), Ross et al. Biochem. Biophys. Res. Commun. 302 354-358 (2003).
# [3] = tested on: L6 myotubes; experiment: Glucose transport analysis in L6 myotubes; type: cell-based
# Protocol: as §1
molecule,measurement,setting,value
"hTIEG: human TIEG (SEQ ID NO:8) over-expressed in 3T3-L1 adipocytes from pcDNA3.1 plasmid (protein, listed as Homo sapiens, human transforming growth factor-beta (TGFB) inducible early growth response (TIEG)) MEERMEMISERPKESMYSWNKTAEKSDFEAVEALMSMSCSWKSDFKKYVENRPVTPVSDLSEEENLLPGTPDFHTIPAFCLTPPYSPSDFEPSQVSNLMAPAPSTVHFKSLSDTAKPHIAAPFKEEEKSPVSAPKLPKAQATSVIRHTADAQLCNHQTCPMKAASILNYQNNSFRRRTHLNVEAARKNIPCAAVSPNRSKCERNTVADVDEKASAALYDFSVPSSETVICRSQPAPVSPQQKSVLVSPPAVSAGGVPPMPVICQMVPLPANNPVVTTVVPSTPPSQPPAVCPPVVFMGTQVPKGAVMFVVPQPVVQSSKPPVVSPNGTRLSPIAPAPGFSPSAAKVTPQIDSSRIRSHICSHPGCGKTYFKSSHLKAHTRTHTGEKPFSCSWKGCERRFARSDELSRHRRTHTGEKKFACPMCDRRFMRSDHLTKHARRHLSAKKLPNWQMEVSKLNDIALPPTPAPTQ","Fold Change (Mean hTIEG/Mean LacZ), cells positive for cell surface Glut 4",[1]; Insulin 0 nM,1.34
same,"Fold Change (Mean hTIEG/Mean LacZ), cells positive for cell surface Glut 4",[1]; Insulin 1 nM,0.20
same,"Fold Change (Mean hTIEG/Mean LacZ), cells positive for cell surface Glut 4",[1]; Insulin 10 nM,0.11
same,Glut 4 translocation with insulin (in words),[1],significantly inhibited Glut 4 translocation at all insulin concentrations tested
same,Basal Glut 4 translocation (in words),[1],little or no effect on basal Glut 4 translocation
"hCTGF: human Connective Tissue Growth Factor (SEQ ID NO:2) over-expressed in cells from pcDNA3.1 plasmid or recombinant adenovirus (protein, listed as Homo sapiens, human connective tissue growth factor (CTGF)) MTAASMGPVRVAFVVLLALCSRPAVGQNCSGPCRCPDEPAPRCPAGVSLVLDGCGCCRVCAKQLGELCTERDPCDPHKGLFCDFGSPANRKIGVCTAKDGAPCIFGGTVYRSGESFQSSCKYQCTCLDGAVGCMPLCSMDVRLPSPDCPFPRRVKLPGKCCEEWVCDEPKDQTVVGPALAAYRLEDTFGPDPTMIRANCLVQTTEWSACSKTCGMGISTRVTNDNASCRLEKQSRLCMVRPCEADLEENIKKGKKCIRTPKISKPIKFELSGCTSMKTYRAKFCGVCTDGRCCTPHRTTTLPVEFKCPDGEVMKKNMMFIKTCACHYNCPGDNDIFESLYYRKMYGDMA","Fold Change (Mean hCTGF/Mean LacZ), cells positive for cell surface Glut 4",[1]; Insulin 0 nM,0.97
same,"Fold Change (Mean hCTGF/Mean LacZ), cells positive for cell surface Glut 4",[1]; Insulin 1 nM,0.35
same,"Fold Change (Mean hCTGF/Mean LacZ), cells positive for cell surface Glut 4",[1]; Insulin 10 nM,0.45
same,Glut 4 translocation with insulin (in words),[1],significantly inhibited Glut 4 translocation at all insulin concentrations tested
same,Basal Glut 4 translocation (in words),[1],little or no effect on basal Glut 4 translocation
same,FC (hCTGF/Con) glucose transport,"[2]; Expt 1, Insulin 0 nM",0.7
same,FC (hCTGF/Con) glucose transport,"[2]; Expt 1, Insulin 0.05 nM",0.6
same,FC (hCTGF/Con) glucose transport,"[2]; Expt 1, Insulin 0.1 nM",0.6
same,FC (hCTGF/Con) glucose transport,"[2]; Expt 1, Insulin 0.3 nM",0.7
same,FC (hCTGF/Con) glucose transport,"[2]; Expt 1, Insulin 1 nM",0.8
same,FC (hCTGF/Con) glucose transport,"[2]; Expt 1, Insulin 10 nM",0.6
same,FC (hCTGF/Con) glucose transport,"[2]; Expt 2, Insulin 0 nM",0.6
same,FC (hCTGF/Con) glucose transport,"[2]; Expt 2, Insulin 0.05 nM",0.6
same,FC (hCTGF/Con) glucose transport,"[2]; Expt 2, Insulin 0.1 nM",0.7
same,FC (hCTGF/Con) glucose transport,"[2]; Expt 2, Insulin 0.3 nM",0.8
same,FC (hCTGF/Con) glucose transport,"[2]; Expt 2, Insulin 1 nM",0.8
same,FC (hCTGF/Con) glucose transport,"[2]; Expt 2, Insulin 10 nM",0.7
same,FC (hCTGF/Con) glucose transport,"[2]; Expt 3, Insulin 0 nM",0.8
same,FC (hCTGF/Con) glucose transport,"[2]; Expt 3, Insulin 0.05 nM",0.7
same,FC (hCTGF/Con) glucose transport,"[2]; Expt 3, Insulin 0.1 nM",0.7
same,FC (hCTGF/Con) glucose transport,"[2]; Expt 3, Insulin 0.3 nM",0.8
same,FC (hCTGF/Con) glucose transport,"[2]; Expt 3, Insulin 1 nM",0.9
same,FC (hCTGF/Con) glucose transport,"[2]; Expt 3, Insulin 10 nM",0.9
same,Mean FC (hCTGF/Con) +/− SEM (n = 3) glucose transport,[2]; Insulin 0 nM,0.70 +/− 0.03
same,Mean FC (hCTGF/Con) +/− SEM (n = 3) glucose transport,[2]; Insulin 0.05 nM,0.63 +/− 0.06
same,Mean FC (hCTGF/Con) +/− SEM (n = 3) glucose transport,[2]; Insulin 0.1 nM,0.67 +/− 0.02
same,Mean FC (hCTGF/Con) +/− SEM (n = 3) glucose transport,[2]; Insulin 0.3 nM,0.76 +/− 0.05
same,Mean FC (hCTGF/Con) +/− SEM (n = 3) glucose transport,[2]; Insulin 1 nM,0.83 +/− 0.02
same,Mean FC (hCTGF/Con) +/− SEM (n = 3) glucose transport,[2]; Insulin 10 nM,0.75 +/− 0.10
same,Glucose transport (in words),"[2]; over-expression in 3T3-L1 adipocytes, basal and insulin stimulated",inhibited both basal and insulin stimulated glucose transport
same,FC (hCTGF/Con) glucose transport,"[3]; Expt 1, Insulin 0 nM",0.78
same,FC (hCTGF/Con) glucose transport,"[3]; Expt 1, Insulin 10 nM",0.67
same,FC (hCTGF/Con) glucose transport,"[3]; Expt 1, Insulin 100 nM",0.70
same,FC (hCTGF/Con) glucose transport,"[3]; Expt 2, Insulin 0 nM",0.79
same,FC (hCTGF/Con) glucose transport,"[3]; Expt 2, Insulin 10 nM",0.92
same,FC (hCTGF/Con) glucose transport,"[3]; Expt 2, Insulin 100 nM",1.05
same,FC (hCTGF/Con) glucose transport,"[3]; Expt 3, Insulin 0 nM",0.79
same,FC (hCTGF/Con) glucose transport,"[3]; Expt 3, Insulin 10 nM",0.77
same,FC (hCTGF/Con) glucose transport,"[3]; Expt 3, Insulin 100 nM",0.74
same,Mean FC (CTGF/Con) +/− SEM (n = 3) glucose transport,[3]; Insulin 0 nM,0.79 +/− 0.004
same,Mean FC (CTGF/Con) +/− SEM (n = 3) glucose transport,[3]; Insulin 10 nM,0.79 +/− 0.07
same,Mean FC (CTGF/Con) +/− SEM (n = 3) glucose transport,[3]; Insulin 100 nM,0.83 +/− 0.11
same,Glucose transport (in words),"[3]; over-expression in L6 myotubes, basal and insulin stimulated",inhibited both basal and insulin stimulated glucose transport
